Results taken from paper PMC3958483, “Fine Specificity and Molecular Competition in SLAM Family Receptor Signalling” (PLoS ONE, 2014).

B1: EAT-2 (recombinant full-length human EAT-2) (natural protein)
chain: MDLPYYHGRLTKQDCETLLLKEGVDGNFLLRDSESIPGVLCLCVSFKNIVYTYRIFREKHGYYRIQTAEGSPKQVFPSLKELISKFEKPNQGMVVHLLKPIKRTSPSLRWRGLKLELETFVNSNSDYVDVLP
B2: SHIP SH2 (SH2 domain from human SHIP-1) (domain or fragment)
chain: WNHGNITRSKAEELLSRTGKDGSFLVRASESISRAYALCVLYRNCVYTYRILPNEDDKFTVQASEGVSMRFFTKLDQLIEFYKKENMGLVTHLQYPV
B3: SHP-2 N-terminal + C-terminal (N+C) SH2 domains (domain or fragment)
chain: TSRRWFHPNITGVEAENLLLTRGVDGSFLARPSKSNPGDFTLSVRRNGAVTHIKIQNTGDYYDLYGGEKFATLAELVQYYMEHHGQLKEKNGDVIELKYPLNCADPTSERWFHGHLSGKEAEKLLTEKGKHGSFLVRESQSHPGDFVLSVRTGDDKGESNDGKSKVTHVMIRCQELKYDVGGGERFDSLTDLVEHYKKNPMVETLGTVLQLKQPLNTT

Tests used:
Assay in all cases: SPR; biotinylated phosphopeptides immobilised on streptavidin chip (about 25 RU single, 50 RU tandem motifs); soluble recombinant protein injected; 37°C; HBS-EP; equilibrium binding (Table 4; same-day purification not given)
[1] = target: CD244 ITSM2 phosphopeptide (human)
[2] = target: CD244 ITSM3 phosphopeptide (human)
[3] = target: CD244 ITSM4 phosphopeptide (human)

Binder | Kd [1] [nM] | Kd [2] [nM] | Kd [3] [nM]
B1 | 60 | 70 | 40
B2 | 2300 | 2200 | 5600
B3 | 24000 |  | 
